Consider two substances from paper PMC4546533.

In experiment [1] the target is MmpL3-D1 (MmpL3 residues 32 – 187) (Mycobacterium tuberculosis) (UniProt P9WJV5). Kind of experiment: BLI. In general terms: Biolayer interferometry detects binding as a change in optical thickness at a sensor tip.
The target of experiment [2] is MmpL11-D1 (MmpL11 residues 41 – 187) (Mycobacterium tuberculosis) (UniProt P9WJT9). The experiment can be described thus: BLI.
UniProt P9WJT9, sequence (P9WJT9 41-187): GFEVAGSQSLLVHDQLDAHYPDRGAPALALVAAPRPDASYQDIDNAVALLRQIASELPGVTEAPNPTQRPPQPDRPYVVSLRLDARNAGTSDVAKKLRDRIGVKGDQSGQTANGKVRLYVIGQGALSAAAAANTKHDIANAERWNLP

UniProt P9WJV5, sequence (P9WJV5 32-187): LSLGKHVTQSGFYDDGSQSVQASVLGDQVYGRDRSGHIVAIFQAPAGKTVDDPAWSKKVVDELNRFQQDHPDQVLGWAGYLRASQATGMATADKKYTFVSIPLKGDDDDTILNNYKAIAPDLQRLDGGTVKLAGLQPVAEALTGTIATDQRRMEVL

In general, Kd refers to the free concentration of one partner at which half of the binding sites on the other are occupied at equilibrium, for simple one-to-one binding. High values mean weaker binding, low ones tighter binding. On to “MmpL3-D2 (MmpL3 residues 419 – 560) (from UniProt P9WJV5 419-560) (domain or fragment)”, for which the Kd in experiment [1] was found to be 4.1 µM. As for “MmpL11-D2 (MmpL11 residues 390 – 529) (from UniProt P9WJT9 390-529) (domain or fragment)”, the Kd in experiment [2] came to 4.5 µM.
